Biological target: Raf-1 (UniProt P04049)
Experiment: FLAG IP, GFP-Raf-1 blot
Details: reference: FLAG-MST2 wild type; sites Y81

Substance: MST2 (from UniProt Q13188) FLAG-MST2 Y81F
- binding against the reference: stronger
